Measured values as given in CN114349855A (BAISIS MEDICAL DIAGNOSIS SCIENCE AND TECH BEIJING LIMITED …, dated 2022).

B1: 抗体 克隆号7D7G3D4 (antibody, V domains shown)
VH: EVQLVESGGGLVQPGGSLRLSCAASGLTVSSNHMSWVRQAPGKGLEWVSIIYSGGSTYYADSVKGRFTISRDNSKNTLYLQMDSLRAEDTTVYYCARAQGGWELPGAGYYYFNGMDFWGQGTTVTVSS
VL: DIQMTQSPSSLSASVGDRVTITCRASQSISTYLNWYQQKPGKAPKLLIYAASNLQSGVPSRFSGSASGTDFTLTISSLQPEDFATYFCQQSYSTSFTFGPGTKVDIK
B2: 抗体 克隆号9A5D9 22G3 (antibody, V domains shown)
VH: EVQLVESGGGLVKPGGSLRLSCAASGFTFSSYSMNWVRQAPGKGLEWVSSISRSSSYIYYADSVMGRFTISRDNAKNSLYLQMNSLRADDTAVYYCARDRGSGNYYVDGLDIWGQGTMVTVSS
VL: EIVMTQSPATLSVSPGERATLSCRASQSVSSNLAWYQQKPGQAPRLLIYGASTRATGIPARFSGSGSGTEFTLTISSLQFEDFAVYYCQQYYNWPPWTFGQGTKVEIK
B3: 抗体 克隆号9A5F6 23F1 (antibody, V domains shown)
VH: QVQLVESGGGVVQPGRSLRLSCAASGFTFSSYAMYWVRQAPGKGLECVAGISYDGSNKYYADSVKGRFTISRENSKNTLYLQMNSLISEDTAVYYCARAEWDYWGQGTLVTVSS
VL: SYELTQPSSVSVSPGQTARITCSGDVLAKKYARWFQQKPGQAPVLVIYKDSERPSGIPERFSGSSSGTTVTLTISGAQVEDEADYYCYSAADNNLGVFGGGTKL

target: T1, 新型冠状病毒野生型Spike蛋白 (新型冠状病毒 (SARS-CoV-2) 野生型, UniProt P0DTC2 16-1213); test: ELISA, S protein coated at 2 μg/mL
T1 construct: also called 野生型S蛋白

Binder | binding result
B1 | no binding (tested: 1 μg/mL)
B2 | no binding (tested: 1 μg/mL)
B3 | no binding (tested: 1 μg/mL)
